The results in this text go back to publication PMC13199644, “Optimized Quantitative Bacterial Two-Hybrid (qB2H) for Protein–Protein Interaction Assessment” (Computational and Structural Biotechnology Journal, 2026).

This assay relates to Spo22p. The experiment in a line: qB2H v3 fluorescence, Spo22p vs ECM11. It is filed as cell-based, Saccharomyces cerevisiae. As to conditions: Acella, qB2H v3, cI-Spo22p 786-886, IPTG(200µM) + ATC (200ng/mL). Here is the method: Precultures of untransformed (for intrinsic fluorescence evaluation) and transformed SB39 cells were diluted (3 μl into 300 μl of fresh medium) in 2-ml microtubes and grown in ThermoMixer C (Eppendorf; 37 °C at 900 rpm) for 2 h. Cultures with an OD600 of approximately 0.5 were then mixed with 100 μl of the same medium containing 4× inducer concentration. […] The induced cultures were grown overnight at 18 °C, diluted (1 μl) in freshly filtered (0.22 μm) phosphate-buffered saline buffer (1 ml per OD unit), and analyzed using guava easyCyte HT (488-nm blue laser). The gating for event analysis was set to minimize background noise (fewer than 100 gated events per 10 μl of sterile phosphate-buffered saline). Ten thousand events were collected per culture, and the MFI was recorded. To allow comparison across independent experiments, SB39 cells cotransformed with VN519 (pBRα-rpoA-ip3_mut3A) and VN550 (pAC-cI_E34P-ASF1A_Term_f1-pOL2-62_L-eGFP-KanR) or VN517 (pBRα-rpoA-ip3) and VN550 were included as internal controls. […]
MFI(x) represents the MFI of a given condition or culture. MFI(low) corresponds to the fluorescence produced by SB39 cells cotransformed with VN519 and VN550, indicating no detectable interaction (Kd > 100,000 nM). […]
Interactions involving distinct protein domains and folding variants were assessed using qB2H systems v1, v2, and v3. […]

B1: ECM11: Q04110 1-302, Saccharomyces cerevisiae (protein, UniProt Q04110 1-302, looked up)
Protein ECM11: MTVIKTEPTTEVTLYSPPSKESLSKDDAHRKKQNNKPPSSINSRSGPNKHKLAAKAPEKKINNTDKQDLSAFLLNPSLIVKPSESKKKENIVAYNDTPGIKTEHTAFQPLTPISKKRALKEKAASEKCDSFDLSRDEKPYIQKKSKTLSSVTEINSSEYKLSLNGENTSSPAKEKSQEPIENPGSYQKTRNYLFEKPDPLDTCLQDYSSMLPSNVAEEDQEYFISVADSTLEEWTNKGQEIIDQQFQLYQEIIKKRIELSYKFKGIISVINDRADALEEQGQQLEGKIKKVKTLANEILNII
Turning to B1, the “Norm. MFI” value was determined as 7.70%.
